The results in this text go back to the Immune Epitope Database (IEDB).

Usually IC50 stands for the concentration needed to halve the response being measured. In general, Kd refers to the free concentration of one partner at which half of the binding sites on the other are occupied at equilibrium, for simple one-to-one binding.

The target of one test is HLA-A*02:01. Description: IEDB peptide-MHC binding, purified MHC/competitive/radioactivity; ≥ and ≤ were set here for values at or beyond the usual limits of such assays. The conditions noted are these: source organism: Trypanosoma cruzi.
For AANPHATFGV, the IC50 was 2.95 µM.
Consider AASTLLYATV, for which the IC50 was determined as 2.98 µM.
On the same count and under the same terms, the figure for ALSLAAVLV is 0.112 µM; for ALSLAAVLVV it is 0.324 µM; for AMALIGDSTV it is 0.148 µM.
Turning to AVLVVMACL, the IC50 amounted to 4.15 µM.
Turning to CLVPAATASL, the IC50 came out at 2.54 µM.
On to FLAGHPLTNL, for which the IC50 was determined as 0.014 µM.
On the same count and under the same terms, the figure for FLARLHAAA is 0.048 µM; for FLGGGGAGI it is 3.58 µM.
Still for that read-out and setting: the figure for FTLVAPVSI is 0.363 µM.
The same measure, in the same setting: the figure for FTSAVLLLV is 0.01 µM; for FTSAVLLLVV it is 0.918 µM.
Turning to GLLLLGLWGT, the half-maximal inhibitory concentration (IC50) was determined as 0.062 µM.
GLMNNAFEWI: the IC50 was 0.175 µM.
Still for that read-out and setting: the result for IILNGSLLT reads 4.33 µM.
In the case of KTWADEYLCV, the IC50 came out at 0.444 µM.
Still for that read-out and setting: the result for KVVSLVILA reads 0.409 µM; that for LLLGLWGTA, 0.944 µM.
LLLGLWGTAA: the IC50 is 0.241 µM.
The same measure, in the same setting: the figure for LLLLGLWGTA is 0.888 µM.
Still for that read-out and setting: the figure for LLTTSGVSAI is 1.11 µM; for LMNNAFEWI it is 0.395 µM.
Still for that read-out and setting: the figure for LMNNAFEWIV is 0.056 µM.
As to LTNLSEQMLV, the IC50 came out at 3.19 µM.
Same read-out and setting: the figure for MMSCSSEAT is 1.17 µM; for MTSCVSEQL it is 0.348 µM.
For the sequence QLDHGVLLV, the IC50 was 0.673 µM.
On the same count and under the same terms, the figure for QMDYSNGLFV is 0.061 µM; for RALSLAAVL it is 3.89 µM; for RLHLWLSDM it is 4.91 µM.
On the same count and under the same terms, the figure for RLLSPTTIV is 0.29 µM; for RVFGLLLLGL it is 0.355 µM.
For the sequence RVFTSAVLL, the IC50 came out at 0.661 µM.
Take SIHVTVSNV: the IC50 was 3.61 µM.
Turning to SLVYVNGVVV, the IC50 was found to be 2.88 µM.
Regarding SMNATLVQA, the IC50 is 0.267 µM.
On to SVFRENLFL, for which the IC50 was found to be 0.059 µM.
Take TLLYATVEV: the 50% inhibitory concentration (IC50) stood at 0.068 µM.
The same measure, in the same setting: the result for VMACLVPAA reads 0.01 µM.
As for VMMSCSSEA, the IC50 amounted to 0.055 µM.
On the same count and under the same terms, the figure for VVMACLVPAA is 0.098 µM; for WIIKNSWTA it is 0.186 µM; for WLSDCGEAL it is 0.228 µM.
For the sequence YVNGVVVATV, the IC50 worked out at 0.466 µM.

The target of a further test is HLA-A*02:01. Nature of the test: IEDB peptide-MHC binding, purified MHC/competitive/radioactivity; filed as Kd, often an IC50 or EC50 that approximates it; ≥ and ≤ were set here for values at or beyond the usual limits of such assays. The settings on record: source organism: Trypanosoma cruzi.
With AACIVGCENV, the Kd was at least 28.2 µM.
Still for that read-out and setting: the figure for AIVFDHYDV is at least 43.4 µM; for AIVTCGAETL it is at least 28.2 µM.
Still for that read-out and setting: the figure for ALKNNGKVV is at least 43.4 µM; for CLLTTSGVSA it is 10.4 µM.
On the same count and under the same terms, the result for FANSKFTLVA reads at least 43.4 µM.
As for FTDNKSCVSL, the Kd was determined as 14.4 µM.
Turning to GLTFKGPGA, the dissociation constant Kd was at least 43.4 µM.
On the same count and under the same terms, the result for GVQGGFVSA reads at least 43.4 µM.
For the sequence IVQENNGAV, the Kd was at least 28.2 µM.
Still for that read-out and setting: the figure for KALETDVPA is at least 43.4 µM; for LAAVLVVMA it is at least 22.8 µM; for LLGLWGTAA it is 6.26 µM.
For the sequence LLTTSGVSA, the Kd is at least 28.2 µM.
Same read-out and setting: the result for LLVGYNDSA reads at least 28.2 µM.
As to LLVGYNDSAA, the Kd was at least 28.2 µM.
The same measure, in the same setting: the result for LTFKGPGAWA reads at least 43.4 µM; that for LVQAFHSFRA, 6.92 µM; that for LVYVNGVVV, 9.07 µM.
For MACLVPAAT, the Kd was at least 26.8 µM.
Same read-out and setting: the figure for MALIGDSTV is 17.5 µM.
Still for that read-out and setting: the figure for MTEQTDEAV is at least 43.4 µM.
Turning to MTYTGGVMT, the dissociation constant Kd was at least 28.2 µM.
On the same count and under the same terms, the figure for NVLLYNRLL is 6.03 µM; for QMSCTDAACI it is at least 28.2 µM.
Still for that read-out and setting: the result for QVHSSLSVV reads at least 43.4 µM; that for RIILNGSLL, at least 43.4 µM; that for SLSVVRPMT, 8.56 µM.
Still for that read-out and setting: the result for STHCSGPSV reads at least 28.2 µM; that for STSRVPYDI, at least 43.4 µM.
With SVPLNQCNWL, the Kd was at least 28.2 µM.
Consider VAVNGPVAV, for which the Kd is at least 28.2 µM.
Regarding VLLLVVVMM, the Kd is at least 27.9 µM.
On the same count and under the same terms, the result for VLVVMACLV reads 7.35 µM; that for VTLPTGQCL, at least 28.2 µM.
Still for that read-out and setting: the figure for WADEYLCVNA is at least 43.4 µM; for WAFSAIGNV it is 16.7 µM; for WIVQENNGA it is 12.8 µM.
In the case of WMTYTGGVMT, the Kd is at least 28.2 µM.
As for YATVEVPSL, the Kd was 5.5 µM.
